This is an account of results in patent US20020012945A1, “METHOD AND REAGENT FOR THE DETECTION OF APOPTOTIC CELLS AND OF A PROTEASE ACTIVATED DURING APOPTOSIS” (priority 1998, published 2002).

* marks the point of attachment. Dnp = O=[N+]([O-])c1ccc(*)c([N+](=O)[O-])c1; Mca = COc1ccc2c(CC(=O)*)cc(=O)oc2c1

For test [1], the system named is caspase 3. Kind of test: Caspase 3 activation in camptothecin-treated U937 cells, antibody capture and Ac-DEVD-AFC cleavage. The conditions noted are these: U937 5×10^5 cells/ml, 4 μg/ml camptothecin, after 2 h. It is filed as cell-based, human. On the procedure:
In order to induce apoptosis in a cellular system, human cells (U937; human histiolytic lymphoma […]) were treated with camptothecin (Topoisomerase I inhibitor, chemotherapeutic agent). […] In order to detect the protease activated by apoptosis (caspase 3), ca. 10^6 cells were withdrawn from the treated cell culture and lysed in lysis buffer (50 mM NaPO4, 10 mM NaCl, 1 mM […], 0.25% (w/v) Nonidet P40, 0.3 mM EDTA; pH 7.8) on ice. The lysate is then contacted with an antibody directed against caspase 3 which is coupled to a solid phase and binds caspase 3 from the lysate for the specific caspase 3 analysis. After removing the supernatant (contains all unspecific components and enzymes), a substrate (50 μM Ac-DEVD-AFC) is added and its caspase 3 mediated substrate conversion is measured by the formation of the fluorescent coumarin cleavage product. After subtraction of the blank value (self fluorescence of the substrate without lysate addition), the kinetic course of the caspase 3 activity can be shown graphically (FIG. 1).

The target of test [2] is T1, caspase 3 (Homo sapiens, UniProt P42574).
T1 construct: endogenous in cells; host or cells: cell lysates with and without camptothecin induction (cell model U937/CAM)
T1 sequence (P42574 29-175 limits assumed): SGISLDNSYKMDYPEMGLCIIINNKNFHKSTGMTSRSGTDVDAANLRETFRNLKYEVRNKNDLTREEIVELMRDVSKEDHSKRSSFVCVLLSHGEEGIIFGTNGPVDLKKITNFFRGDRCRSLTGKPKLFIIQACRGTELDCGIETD
T1 sequence (P42574 176-277 limits assumed): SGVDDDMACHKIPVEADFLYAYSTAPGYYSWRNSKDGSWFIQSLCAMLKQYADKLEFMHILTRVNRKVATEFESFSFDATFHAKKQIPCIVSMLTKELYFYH
Kind of test: Selection of the optimal fluorescent substrate. It is filed as biochemical. On the procedure: Three fluorescent substrates were tested. They are acetyl-Asp-Glu-Val-Asp-7-amido-4-trifluoromethyl-coumarin (AFC), acetyl-Asp-Glu-Val-Asp-7-amido-4-methyl-coumarin (AMC) and (7-methoxycoumarin-4-yl)acetyl-Asp-Glu-Val-Asp-Ala-Pro-Lys(2,4-dinitrophenyl)OH (Mca). The three substrates were compared with one another using the assessment criteria i) background ii) signal level and iii) signal ratio from ± induction.

For `CC[C@@]1(O)C(=O)OCc2c1cc1n(c2=O)Cc2cc3ccccc3nc2-1` [camptothecin], in the test with caspase 3 [1], the “protease activity (caspase 3)” value is reported as “increase of protease activity”. With “(7-methoxycoumarin-4-yl)acetyl-Asp-Glu-Val-Asp-Ala-Pro-Lys(2,4-dinitrophenyl)OH (Mca-DEVDAPK(Dnp)-OH; SMILES COc1ccc2c(CC(=O)N[C@@H](CC(=O)O)C(=O)N[C@@H](CCC(=O)O)C(=O)N[C@H](C(=O)N[C@@H](CC(=O)O)C(=O)N[C@@H](C)C(=O)N3CCC[C@H]3C(=O)N[C@@H](CCCCNc3ccc([N+](=O)[O-])cc3[N+](=O)[O-])C(=O)O)C(C)C)cc(=O)oc2c1)”, in the test with caspase 3 [2], the signal level entry is “low signal levels” and the “signal ratio from ± induction” value is listed as “somewhat better ratio”. With “acetyl-Asp-Glu-Val-Asp-7-amido-4-methyl-coumarin [AMC]”, in the test with caspase 3 [2], the “background (self-fluorescence of the substrate without lysate addition)” value is “relatively high” and the signal level result was “highest signals”. As for “acetyl-Asp-Glu-Val-Asp-7-amido-4-trifluoromethyl-coumarin [AFC]”, in the test with caspase 3 [2], the signal level result was “very good signal yield” and the “signal ratio from ± induction” value was “optimal ratio”.
